# Laboratory results taken from US20110288036A1 (published 2011).
# Where no end group is shown, it is not given here.
# T1: MKK4 (Mitogen-Activated Protein Kinase Kinase 4) (UniProt P45985 1-399)
# T1 sequence: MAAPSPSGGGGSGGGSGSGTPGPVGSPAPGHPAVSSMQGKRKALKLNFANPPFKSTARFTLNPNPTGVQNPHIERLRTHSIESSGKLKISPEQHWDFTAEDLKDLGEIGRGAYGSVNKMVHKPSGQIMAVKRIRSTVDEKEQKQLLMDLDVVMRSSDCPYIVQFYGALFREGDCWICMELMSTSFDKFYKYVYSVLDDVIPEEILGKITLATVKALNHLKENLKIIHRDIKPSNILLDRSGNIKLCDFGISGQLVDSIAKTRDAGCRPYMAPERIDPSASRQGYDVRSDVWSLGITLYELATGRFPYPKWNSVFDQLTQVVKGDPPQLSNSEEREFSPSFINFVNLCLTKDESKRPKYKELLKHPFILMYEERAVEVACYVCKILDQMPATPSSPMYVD
# T2: MKK6 (Mitogen-Activated Protein Kinase Kinase) (UniProt P52564 1-334)
# T2 sequence: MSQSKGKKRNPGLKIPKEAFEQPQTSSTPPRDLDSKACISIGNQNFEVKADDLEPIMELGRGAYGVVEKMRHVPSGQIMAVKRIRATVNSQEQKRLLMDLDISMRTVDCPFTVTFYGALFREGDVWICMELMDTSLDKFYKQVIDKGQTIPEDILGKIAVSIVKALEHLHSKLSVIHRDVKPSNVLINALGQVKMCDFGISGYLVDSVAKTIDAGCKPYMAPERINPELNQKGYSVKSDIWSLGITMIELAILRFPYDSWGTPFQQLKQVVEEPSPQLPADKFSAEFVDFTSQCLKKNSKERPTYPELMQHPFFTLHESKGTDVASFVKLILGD
# T3: PRAK (p38-Regulated/Activated Protein Kinase) (UniProt Q8IW41 1-473)
# T3 sequence: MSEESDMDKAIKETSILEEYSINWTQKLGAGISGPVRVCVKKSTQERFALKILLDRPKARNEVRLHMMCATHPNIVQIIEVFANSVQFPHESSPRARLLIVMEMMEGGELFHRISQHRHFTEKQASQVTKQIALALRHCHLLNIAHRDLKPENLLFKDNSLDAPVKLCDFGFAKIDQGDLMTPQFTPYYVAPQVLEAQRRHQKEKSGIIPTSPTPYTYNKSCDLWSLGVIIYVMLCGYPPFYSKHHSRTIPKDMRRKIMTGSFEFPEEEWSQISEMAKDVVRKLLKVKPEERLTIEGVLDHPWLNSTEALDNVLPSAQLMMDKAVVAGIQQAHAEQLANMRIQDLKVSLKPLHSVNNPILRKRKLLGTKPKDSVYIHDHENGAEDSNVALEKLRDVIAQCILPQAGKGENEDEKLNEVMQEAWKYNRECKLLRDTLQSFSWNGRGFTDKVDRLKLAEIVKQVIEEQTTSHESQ
# B1: MMI-0100 (YARAAARQARAKALARQLGVAA; SEQ ID NO: 1) (peptide)
# peptide: YARAAARQARAKALARQLGVAA
# modifications: not fully specified (C-terminus)
# Columns and labels:
# Test in all cases: cell-based or functional assay
# [1] = biological target: JNK (c-Jun N-terminal Kinase)
# [2] = biological target: T1, MKK4 (Mitogen-Activated Protein Kinase …)
# [3] = biological target: T2, MKK6 (Mitogen-Activated Protein Kinase …)
# MEK1 = MEK1 (UniProt Q02750 1-393)
# [4] = biological target: T3, PRAK (p38-Regulated/Activated Protein …)
# [5] = biological target: p38 MAPK (p38 Mitogen-Activated Protein Kinase)
binder,measurement,setting,value
B1,"Percent Activity (radiometric kinase assay, 100 µM peptide)",[1],92 percent activity
same,"Percent Activity (radiometric kinase assay, 100 µM peptide)",[2],90 percent activity
same,"Percent Activity (radiometric kinase assay, 100 µM peptide)",[3],50 percent activity
same,"Percent Activity (radiometric kinase assay, 100 µM peptide)",MEK1,68 percent activity
same,"Percent Activity (radiometric kinase assay, 100 µM peptide)",[4],100 percent activity
same,"Percent Activity (radiometric kinase assay, 100 µM peptide)",[5],60 percent activity
